# Values quoted from earlier work in article doi:10.1101/2022.07.01.498456.
# How the values were obtained:
# Glu35 = Glu35 (UniProt position 53, CAAKFESNFNT); assay: other; conditions: native HEWL, ligand-free (inferred; not explicitly stated)
# Asp52 = Asp52 (UniProt position 70, TDGSTDYGILQ); assay: other; conditions: native HEWL, ligand-free (inferred; not explicitly stated)
substance,measurement,setting,value
Hen egg-white lysozyme (lysozyme C) (Gallus gallus),pKa,Glu35,6.2
same,pKa,Asp52,3.6
